Measurements from paper PMC3747585.

Key:
[1] = biological target: NT-647-labeled human C7 (human) (UniProt P10643); assay: MST
[2] = biological target: NT-647-labeled human C9 (human) (UniProt P02748); assay: MST
[3] = biological target: CspA (full-length CspA^26–251) from Borrelia burgdorferi (Borrelia burgdorferi); assay: ELISA

Chain of factor H (P08603 19-1231): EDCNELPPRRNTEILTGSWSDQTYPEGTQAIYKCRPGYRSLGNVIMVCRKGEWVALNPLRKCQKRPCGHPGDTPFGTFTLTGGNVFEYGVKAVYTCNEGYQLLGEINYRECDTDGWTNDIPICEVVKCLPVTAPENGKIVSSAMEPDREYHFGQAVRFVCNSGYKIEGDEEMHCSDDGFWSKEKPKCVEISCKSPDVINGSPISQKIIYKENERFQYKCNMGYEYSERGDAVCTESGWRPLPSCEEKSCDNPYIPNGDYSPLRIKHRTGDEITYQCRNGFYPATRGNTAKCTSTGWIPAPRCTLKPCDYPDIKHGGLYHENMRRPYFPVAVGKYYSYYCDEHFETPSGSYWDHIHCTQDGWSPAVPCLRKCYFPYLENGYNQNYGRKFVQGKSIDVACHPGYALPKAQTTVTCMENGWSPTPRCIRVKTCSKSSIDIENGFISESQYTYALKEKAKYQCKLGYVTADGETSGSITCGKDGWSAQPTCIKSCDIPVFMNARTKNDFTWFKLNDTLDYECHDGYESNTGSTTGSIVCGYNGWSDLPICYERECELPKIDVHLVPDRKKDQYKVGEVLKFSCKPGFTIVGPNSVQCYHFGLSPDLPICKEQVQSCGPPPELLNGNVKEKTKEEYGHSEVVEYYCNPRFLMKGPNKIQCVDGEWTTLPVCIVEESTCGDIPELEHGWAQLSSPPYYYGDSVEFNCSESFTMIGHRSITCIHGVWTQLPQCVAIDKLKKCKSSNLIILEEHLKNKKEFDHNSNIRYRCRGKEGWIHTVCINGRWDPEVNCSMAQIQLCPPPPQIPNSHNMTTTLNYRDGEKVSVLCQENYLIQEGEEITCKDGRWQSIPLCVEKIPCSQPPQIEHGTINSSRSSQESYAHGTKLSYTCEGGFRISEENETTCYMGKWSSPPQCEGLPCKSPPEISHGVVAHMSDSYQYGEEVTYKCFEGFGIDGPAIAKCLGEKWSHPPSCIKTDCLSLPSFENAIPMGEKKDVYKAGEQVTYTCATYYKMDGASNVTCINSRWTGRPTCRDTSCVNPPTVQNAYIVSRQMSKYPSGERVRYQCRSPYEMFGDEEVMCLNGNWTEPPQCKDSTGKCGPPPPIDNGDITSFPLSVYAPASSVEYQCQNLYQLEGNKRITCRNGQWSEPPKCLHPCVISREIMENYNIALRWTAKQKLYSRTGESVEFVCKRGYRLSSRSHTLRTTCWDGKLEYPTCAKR

CspA (full-length CspA^26–251) from Borrelia burgdorferi (natural protein)
Kd [1]: 5.1 µM | Kd [2]: 3.4 µM

factor H (from UniProt P08603 19-1231) (natural protein)
percent reduction of C7 binding to CspA by factor H at 5 µg/ml [3]: 17% | percent reduction of C9 binding to CspA by factor H at 5 µg/ml [3]: 23%

human terminal complement component C7 (from UniProt P10643 23-843) (natural protein)
percent reduction of binding by NaCl at 0.15 M [3]: 60% | percent reduction of binding by heparin at 500 µg/ml [3]: 42%

human terminal complement component C9 (from UniProt P02748 22-559) (natural protein)
percent inhibition of binding by NaCl at 0.15 M [3]: 35%
